The record followed here is patent publication US20250002563A1 (UNIVERSITY OF PITTSBURGH OF THE COMMONWEALTH SYSTEM OF …, published 2025).

For test [1], the target named is T1, RBDSARS-CoV (SARS-CoV S protein residues 318-510, C-terminal His-tag) (SARS-CoV, UniProt P59594 318-510). In words: ELISA.
In test [2] the target is T2, RBDSARS-CoV-2 (SARS-CoV-2 S protein residues 319-539, C-terminal His-tag) (SARS-CoV-2, UniProt P0DTC2 319-539). In words: ELISA. On the technique in general: In an ELISA, binding on a coated surface is turned into a signal by an enzyme label.
Test [3] addresses spike of SARS-CoV-2 Munich strain (authentic virus) (SARS-CoV-2). In words: cell-based or functional assay.
For test [4], the target named is recombinant RBD of the SARS-CoV-2 S protein (Example 1) (SARS-CoV-2, UniProt P0DTC2 319-541). In words: SPR, RBD immobilized on CM5. (In SPR one partner is held on a chip, and binding of the other changes the refractive index at the surface.)
Test [5] addresses SARS-CoV-2 spike on pseudotyped virus particles (Wuhan-Hu-1 strain) (SARS-CoV-2, UniProt P0DTC2 14-1273). In words: cell-based or functional assay.
Test [6] deals with T1, RBDSARS-CoV (SARS-CoV S protein …). In words: SPR, RBD immobilized on CM5.
For test [7], the target named is T2, RBDSARS-CoV-2 (SARS-CoV-2 S protein …). In words: SPR, RBD immobilized on CM5.

B1: 5p-23 (VHH)
VHH: HVQLVESGGGLVQAGDSLRLSCAASGGTFSSYAMGWFRQVPGKEREFVAAISRGGSTDYADSVKGRFTISRDNAKNTVNLQMNSLKPEDTAVYYCAADRSPLFWGMSQSHGEYDYWGQGTQVTVSS
As for B1, the IC50 is 10 to 100 nM in test [1] and < 10 nM in test [2].

B2: 5p-20 (VHH)
VHH: HVQLVESGGGLVQAGGSLRLSCAASGGTFSAYAMGWFRQVPGKEREFVAGIARSGSDYYGDSVKGRFIISRDNTKNTVYLQMNSLKAEDTGVYYCAADRAILYHGLSQRTQAYAYWGPGTQVTVSS
As to B2, the IC50 was 100 to 1000 nM in test [1] and < 10 nM in test [2].

B3: 5p-18 (VHH)
VHH: EVQLVESGGGLVQAGGSLRLSCEASGRTFSSYAMGWFRQAPGKEREFVAAISQGGSTDYGDSTKGRFTISRDNAKNTVYLQMNSLKPEDTAVYYCAADQTPLRYAYSTRSQDYDYWGQGTQVTVSS
Turning to B3, the IC50 in test [1] and in test [2] was < 10 nM throughout.

B4: R113 (VHH)
VHH: HVQLVESGGGLVQPGGSLRLSCAASGRSFNSYLMGWFRQAPGKEREFVAWISGSPHDIIRYRDSVKDRFTISRDNAKNTVYLQMNSLKPVDTAVYYCAVGSLRVGSFSPDYWGQGTQVTVSS
As for B4, the concentration for half-maximal inhibition (IC50) in test [1] was 10 to 100 nM; in test [2] it was < 10 nM.

B5: 5p-38 (VHH)
VHH: QVQLVESGGGLVQAGGSLRLSCAAAARFSTSAMGWFRQAPGKEREFVAAISWSNTNTHYADTVKGRFTISADTAKETVDLQMNSLKPEDTAVYYCVQGGWGIRQPIIVDYWGKGTQVTVSS
notes: class II(B) psNb
On to B5, for which, in test [3], the “PRNT SARS-CoV-2 Munich IC50” value was determined as 59.9 nM. Further, the IC50 in test [1] and in test [2] was < 10 nM in each case.

B6: 4P-76 (VHH)
VHH: EVQLVESGGGLVQAGDSLRLSCAASERTGINYAMGWFRQAPGKERDFVAAIGWNGSITKYAESVKGRFTLSRDDAMNTVSLQMNSLKPEDTAVYYCAARIGSIANLQYREYEFAYWGQGTQVTVSS
As for B6, the IC50 is 1000 to 8000 nM in test [1] and 10 to 100 nM in test [2].

B7: R117 (VHH)
VHH: HVQLVESGGGLVQAGGSLRLSCAAPGRTFSTSAMGWFRQAPGKEREFVAAIDWSNTNIHYADTVKGRFTISTDTAKNTVYLQMNNLKPEDTAVYYCAQGGWGLTQPISVDYWGKGTQVTVSS
Turning to B7, the IC50 in test [1] was 100 to 1000 nM; in test [2], < 10 nM.

B8: 5p-15 (VHH)
VHH: QVQLVESGGGLVQPGDSLRLACAASGGTFGYYALGWFRQAPGKEREFVGSITQTGFGTKYADAVKGRFTISRDNAKNTMYLQMNSLKPEDTAVYYCAADPTAQNMGIRDPPYWGQGTQVTVSS
Consider B8, for which the concentration for half-maximal inhibition (IC50) in test [1] and in test [2] was 10 to 100 nM throughout.

B9: 4P-61 (VHH)
VHH: QVQLVESGGGLVQAGGSLRLSCAASGSTFNTRNIAWYRQAPGKQRELVAGITNAGATIYADSVKGRFTISRDNAKNTMYLQIDSLKPEDTAVYYCNRIVGTYPWGQGTQVTVSS
In the case of B9, the IC50 in test [1] is 10 to 100 nM; in test [2] it was < 10 nM.

B10: 4P-85 (VHH)
VHH: QVQLVESGGGLVQAGGSLRLSCAVSGRTVSTYGMAWFRQTPGKKERDFVATITRSEGTTFYADSVKGRFTISRDNAKNTVYLQMNSLKIEDTAVYYCAVRRDSSWGYSRDLFEYDDWGQGTQVTVSS
On to B10, for which the IC50 in test [1] and in test [2] was < 10 nM throughout.

B11: Nb89 (VHH)
VHH: HVQLVESGGGLVQAGGSLRLSCAASGGTFTTFRMAWFRQTPGKEREFVAASSWGFVNYADPVKGRFTISRDNAKNTVYLEMSSLKTEDTAVYYCAARNPGTGQYDYWGQGTQVTVSS
Take B11: the equilibrium dissociation constant (Kd) in test [4] worked out at 0.108 nM. Also, the “IC50, pseudotyped SARS-CoV-2 neutralization assay (luciferase)” value (from here on “IC50 … (luciferase)”) in test [5] worked out at 0.129 nM.

B12: 5p-118 (VHH)
VHH: QVQLVESGGGLVQAGESLRLSCAASKPTFRNFAAGWFRQTPGKDREFVAVIEYDGDSAYYADSVKGRFTISRDNAKNTVYLQMNRLKPGDTAVYICAIGGNHYDPSKYYTADEYDYWGQGTQVTVSS
notes: class II(B) psNb
Regarding B12, the “PRNT SARS-CoV-2 Munich IC50” value in test [3] came out at 7.41 nM. The Kd in test [6] is 0.00396 nM; in test [7], < 0.001 nM. Moreover, the IC50 in test [1] and in test [2] was < 10 nM each time.

B13: 5p-182 (VHH)
VHH: EVQLVESGGGLVQTGGSLRLSCALSGYTFSIFPTAWFRQAPGKEREFVAGIRWNGSTRDYTEYADFVKGRFTISRDNAKNMVYLQMISLKPEDTALYYCAASDGVIDGTNANAYRYWGQGTQVTVSS
notes: class I psNb
Take B13: in test [3], the “PRNT SARS-CoV-2 Munich IC50” value was determined as 0.35 nM. For the same molecule, the IC50 in test [1] is 1000 to 8000 nM; in test [2] it was < 10 nM.

B14: 4P-56 (VHH)
VHH: QVQLVESGGGLVQAGGSLRLSCAASGRTDSISDMGWFRQAPGKEREFVAVVGWSGGGTDYAHSVKGRFTISRDNAKNTVYLQMNSLKPEDTAVYYCAVGSLRVGSFSVEYWGQGTQVTVSS
notes: class IV psNb
In the case of B14, the values for the IC50 in test [1] and in test [2] were 10 to 100 nM and < 10 nM, respectively.

B15: 4P-89 (VHH)
VHH: HVQLVESGGGLVQAGGSLRLSCAASGRTLTTYSMAWFRQAPGKEREVVAAITPTGFGTYYADFVKGRFTISRNSAKNTVYLQMDSLKPEDTAVYYCAARSEIIIASPTGGEYDYWGQGTQVTVSS
Consider B15, for which the IC50 in test [1] is 10 to 100 nM; in test [2], < 10 nM.

B16: Nb20 (VHH)
VHH: QVQLVESGGGLVQAGGSLRLSCAVSGAGAHRVGWFRRAPGKEREFVAAIGASGGMTNYLDSVKGRFTISRDNAKNTIYLQMNSLKPQDTAVYYCAARDIETAEYIYWGQGTQVTVSS
Consider B16, for which, in test [5], the “IC50 … (luciferase)” value is 0.102 nM.

B17: Nb21 (VHH)
VHH: QVQLVESGGGLVQAGGSLRLSCAVSGLGAHRVGWFRRAPGKEREFVAAIGANGGNTNYLDSVKGRFTISRDNAKNTIYLQMNSLKPQDTAVYYCAARDIETAEYTYWGQGTQVTVSS
B17: the “IC50 … (luciferase)” value in test [5] came to 0.045 nM.

B18: 4P-74 (VHH)
VHH: HVQLVESGGGLVQAGGSLRLSCATSGRTFSTYRMSWFRQAPGKEREFVATIIWSVGSTHYADSVKGRFTISRDNAKNMVYLQMNSLKPEDTAVYYCAAQRSDSSSWGYEDDYDYWGQGTQVTVSS
Take B18: the values for the IC50 in test [1] and in test [2] were > 8000 nM and < 10 nM, respectively.

B19: R58 (VHH)
VHH: QVQLVESGGGLVQAGGSLRLSCAASGRDFSSTVMGWFRQAPGKERELVAWMTVTYDITYYADSVKGRFTISKDNAKNTVYLQANSLKPDDTAVYYCASGALRVGSFSPDYWGQGTQVTVSS
Take B19: the IC50 in test [1] was 1000 to 8000 nM; in test [2], 10 to 100 nM.

B20: R37 (VHH)
VHH: QVQLVESGGGLVQTGGSLRLSCAASGRTFSNYVMGWFRQAPGKEREFVSSIEWNSENTFYANSVKGRFTISRDNAKNTVYLQMNSLKAEDTAVYYCAADRGSSYYYTRASEYTYWGQGTQVTVSS
B20: the IC50 in test [1] and in test [2] was < 10 nM each time.

B21: 5p-132 (VHH)
VHH: QVQLVESGGGLVQAGGSLRLSCTASGYDFSILAIAWYRQAPGKERELVAAISRVGSTDYADSVKGRFTISRDNTKNTVSLQMDSLKPEDTAVYYCNAGIPMTTVLSGLGFWGQGTQVTVSS
notes: class IV psNb
Consider B21, for which the Kd was determined as 304 nM in test [6] and 0.39 nM in test [7]. Moreover, the IC50 in test [2] was < 10 nM.

B22: 5p-60 (VHH)
VHH: QVQLVESGGGLVQAGGSLRLSCAVSGRTISTFGMGWFRQAPGKEREFVATITRDEDMLLYADSVKGRFTISRDTAKNMVFLQMNSLKIEDTALYYCAVRRDSSWGYSRQSTEYDYWGQGTQVTVSS
notes: class II(A) psNb
B22: in test [3], the “PRNT SARS-CoV-2 Munich IC50” value is 9.79 nM. Also, the IC50 in test [1] and in test [2] was < 10 nM each time.

B23: 5p-35 (VHH)
VHH: HVQLVESGGGLVQAGGSLRLSCAASGRTFSRYAAGWFRQAPGKEREFVAVIEWDGDSAYYADPVKGRFTISRDNAKNTVYLQMNRLKPEDTAVYICAVGGNHYSRSKYYNLDEYDDWGQGTQVTVSS
notes: class II(B) psNb
Turning to B23, the “PRNT SARS-CoV-2 Munich IC50” value in test [3] is 42.2 nM. Moreover, the IC50 in test [1] and in test [2] was < 10 nM in each case.

B24: 4P-32 (VHH)
VHH: DVQLVESGGGLVQAGGSLRLTCAASGRTFSSDTMDMGWFRQAPGKERQFVAADAWNDGRTYYADSVKGRFTISRDNAKNTLYLQMNSLKPEDTAVYYCAADTYSNYEKDYSWGYWGQGTQVTVSS
Regarding B24, the IC50 in test [1] was 1000 to 8000 nM; in test [2] it was < 10 nM.

What is called IC50 is the concentration needed to halve the response being measured. Lower therefore signals higher potency. A word on the Kd: it is the equilibrium constant for the complex coming apart.
